Columns and labels:
[1] = molecular target: B7-H1 (full-length, expressed on BHK cells transfected with pZMP21 hB7-H1) (human) (UniProt Q9NZQ7); assay: flow cytometry (PE probe vs anti-CD8 APC) on BHK cells transfected with full-length B7-H1; no competitor
[2] = molecular target: B7-H1 (full-length, expressed on BHK cells transfected with pZMP21 hB7-H1) (human) (UniProt Q9NZQ7); assay: flow cytometry on B7-H1-transfected BHK cells; competitor: excess unlabeled BTLA/mFc2
[3] = molecular target: B7-H1 (full-length, expressed on BHK cells transfected with pZMP21 hB7-H1) (human) (UniProt Q9NZQ7); assay: flow cytometry on B7-H1-transfected BHK cells; competitor: excess unlabeled NKp30/mFc2
[4] = molecular target: B7-H1 (full-length, expressed on BHK cells transfected with pZMP21 hB7-H1) (human) (UniProt Q9NZQ7); assay: flow cytometry on B7-H1-transfected BHK cells; competitor: excess unlabeled BTLA/mFc2 (row printed a second time)

Chain of UniProt Q9NZQ7 (Q9NZQ7 19-290): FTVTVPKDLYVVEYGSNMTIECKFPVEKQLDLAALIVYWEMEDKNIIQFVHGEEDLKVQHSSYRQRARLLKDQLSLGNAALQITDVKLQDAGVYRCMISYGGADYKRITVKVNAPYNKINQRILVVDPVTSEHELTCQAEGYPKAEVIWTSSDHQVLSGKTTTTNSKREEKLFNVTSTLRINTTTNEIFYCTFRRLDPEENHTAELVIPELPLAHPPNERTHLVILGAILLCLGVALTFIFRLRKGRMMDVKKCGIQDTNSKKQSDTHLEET

Row | % double positive [1] | % double positive [2] | % double positive [3] | % double positive [4] | Substance
1 | 1.91% |  |  |  | Zenon control
2 | 33.7% | 28.8% | 31.4% | 28.8% | PD-1/Fc (Fc fusion)
3 | 1.96% |  |  |  | BTLA/mFc2 (Fc fusion)

Reference: patent publication US20060286092A1
